Where two headings read alike, the source gives them in different places.
Key:
Experiment in all cases: cell-based or functional assay
[1] = biological target: T1, mouse C140 receptor mutant 35Pro (mouse, UniProt P55086 32-399)
T1 sequence: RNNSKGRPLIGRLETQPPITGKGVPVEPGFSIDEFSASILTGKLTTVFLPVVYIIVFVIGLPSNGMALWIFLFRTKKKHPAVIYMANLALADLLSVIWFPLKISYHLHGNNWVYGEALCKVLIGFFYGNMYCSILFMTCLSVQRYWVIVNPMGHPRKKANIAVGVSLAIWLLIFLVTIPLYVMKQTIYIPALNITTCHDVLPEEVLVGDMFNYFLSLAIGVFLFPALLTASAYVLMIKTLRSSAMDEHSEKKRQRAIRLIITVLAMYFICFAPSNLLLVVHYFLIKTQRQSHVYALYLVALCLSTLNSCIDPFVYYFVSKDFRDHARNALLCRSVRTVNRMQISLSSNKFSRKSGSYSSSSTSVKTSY

[2] = biological target: T2, mouse C140 receptor mutant 35His (mouse, UniProt P55086 32-399)
T2 sequence: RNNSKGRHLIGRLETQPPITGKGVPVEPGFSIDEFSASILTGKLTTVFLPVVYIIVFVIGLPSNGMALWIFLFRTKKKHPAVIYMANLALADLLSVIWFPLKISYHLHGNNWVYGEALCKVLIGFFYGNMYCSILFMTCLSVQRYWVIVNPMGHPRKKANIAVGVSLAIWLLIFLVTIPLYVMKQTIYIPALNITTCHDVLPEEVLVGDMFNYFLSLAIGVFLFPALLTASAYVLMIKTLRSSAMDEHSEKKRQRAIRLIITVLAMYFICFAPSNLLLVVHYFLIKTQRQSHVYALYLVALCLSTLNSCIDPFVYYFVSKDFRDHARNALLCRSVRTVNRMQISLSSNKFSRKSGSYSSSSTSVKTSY

[3] = biological target: T3, mouse C140 receptor mutant 35Arg (mouse, UniProt P55086 32-399)
T3 sequence: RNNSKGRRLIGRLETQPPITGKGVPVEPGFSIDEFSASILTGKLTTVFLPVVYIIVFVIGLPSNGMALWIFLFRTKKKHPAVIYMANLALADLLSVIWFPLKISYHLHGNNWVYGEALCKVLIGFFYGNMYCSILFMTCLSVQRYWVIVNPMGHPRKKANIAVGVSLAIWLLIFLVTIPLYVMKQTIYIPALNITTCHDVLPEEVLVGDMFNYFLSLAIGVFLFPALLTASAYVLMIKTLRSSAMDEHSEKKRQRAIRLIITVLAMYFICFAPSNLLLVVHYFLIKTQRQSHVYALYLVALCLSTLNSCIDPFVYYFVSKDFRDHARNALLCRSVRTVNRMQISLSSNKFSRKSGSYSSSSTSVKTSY

[4] = biological target: T4, wild-type mouse C140 receptor (mouse, UniProt P55086 32-399)
T4 sequence: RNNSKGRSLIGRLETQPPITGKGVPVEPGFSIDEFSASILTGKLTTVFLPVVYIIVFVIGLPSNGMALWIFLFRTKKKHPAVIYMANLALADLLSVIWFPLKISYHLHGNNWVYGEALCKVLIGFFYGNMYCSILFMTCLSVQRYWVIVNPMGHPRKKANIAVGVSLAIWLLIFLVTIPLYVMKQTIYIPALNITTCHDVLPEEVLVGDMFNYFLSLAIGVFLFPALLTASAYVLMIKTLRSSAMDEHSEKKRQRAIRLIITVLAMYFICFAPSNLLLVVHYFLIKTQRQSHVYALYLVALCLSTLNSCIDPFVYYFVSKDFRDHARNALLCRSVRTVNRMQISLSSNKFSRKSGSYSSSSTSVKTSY

[5] = biological target: T4, wild-type mouse C140 receptor; remark: listed apart in the source
[6] = biological target: T4, wild-type mouse C140 receptor; remark: listed apart in the source

Molecule: trypsin (enzyme)
- Fold increase in 45Ca [1]: 0 fold
- Fold increase in 45Ca [2]: 0 fold
- Fold increase in 45Ca [3]: 0 fold
- Fold increase in 45Ca [4]: 6.6 fold

Molecule: SLIARL [peptide SLIARL]
- Fold Increase in 45Ca [5]: 4.3 fold

Molecule: SFFLRW [thrombin receptor agonist SFFLRW]
- Fold Increase in 45Ca [5]: 1.7 fold

Molecule: SLIGRL [agonist peptide SLIGRL]
- Fold Increase in 45Ca [6]: 11 fold
- Fold Increase in 45Ca [1]: 23 fold
- Fold Increase in 45Ca [2]: 23 fold
- Fold Increase in 45Ca [3]: 15 fold
- Fold Increase in 45Ca [5]: 15 fold

Molecule: SLIGAL [peptide SLIGAL]
- Fold Increase in 45Ca [5]: 0 fold

Molecule: ALIGRL [peptide ALIGRL]
- Fold Increase in 45Ca [5]: 1.3 fold

Molecule: SAIGRL [peptide SAIGRL]
- Fold Increase in 45Ca [5]: 0 fold

Molecule: SLAGRL [peptide SLAGRL]
- Fold Increase in 45Ca [5]: 0 fold

Molecule: SLIGRA [peptide SLIGRA]
- Fold Increase in 45Ca [5]: 8.5 fold

Source: patent US20050080234A1 (Takeda / Millennium, published 2005)
